Test results taken from patent US20140219982A1, “EXOGENOUS OPIOID PEPTIDE-DEGRADING ENZYME” (priority 2011, published 2014).

System: gliadorphin (YPQPQPF: SEQ ID NO: 2)
Experiment: Analysis of gliadorphin degradation product by LC-MS
Assay type: biochemical

B1: papain (protein, UniProt P00784 134-345, looked up)
Papain: IPEYVDWRQKGAVTPVKNQGSCGSCWAFSAVVTIEGIIKIRTGNLNEYSEQELLDCDRRSYGCNGGYPWSALQLVAQYGIHYRNTYPYEGVQRYCRSREKGPYAAKTDGVRQVQPYNEGALLYSIANQPVSVVLEAAGKDFQLYRGGIFVGPCGNKVDHAVAAVGYGPNYILIKNSWGTGWGENGYIRIKRGTGNSYGVCGLYTSSFYPVKN
notes: protease, commercial (Asahi Food & Healthcare Co., Ltd.)
LC-MS of degradation product
  detection of undegraded 7-mer of gliadorphin: undegraded 7-mer was detected
Papain alone, as shown in the examples
  direct degradability for exomorphine peptide: did not exhibit direct degradability
